{"source": "paper PMC9844198", "target": "LD-CLIMP-63-FLAG (soluble CLIMP-63 luminal domain, C-terminal His6-FLAG tag) (human)", "test": "native MS; intact protein mass LC-MS under native-like conditions; MAbPac SEC-1 column, 50 mM ammonium acetate pH 7.5, QExactive HF Orbitrap, high-mass-range mode", "data": [{"substance": "LD-CLIMP-63-FLAG (soluble CLIMP-63 luminal domain, C-terminal His6-FLAG tag) (domain or fragment)", "values": [{"measurement": "stoichiometry N", "result": 3}]}]}
